According to patent publication US6927039B2, “Enzymatic process” (Nanobiodesign Limited, priority 2000, dated 2005):

Legend:
Test in all cases: Substrate-dependent NADPH consumption assay at 340 nm, purified enzyme (in vitro)
Assay type in all cases: biochemical, Bacillus megaterium
Conditions in all cases: other: purified enzyme, NADPH 130-150 μM, 20° C., pH 8.0
[1] = substrate: CCCCCCCCCCCCOS(=O)(=O)[O-].[Na+]
Procedure: (§1) NADPH consumption was followed at 340 nm using a Δε340=6.22 mM^−1·cm^−1. Both assays were performed at 20° C. using P450 BM3 in 100 mM potassium phosphate buffer, pH 8.0. Reaction was initiated by addition to the substrate bound enzyme of NADPH to a final concentration of 130-150 μM. In the kinetics assay the rate constant kcat was calculated from the linear part of the decrease in A340 with time, which lasted at least for the first 4 sec. The enzyme concentration typically varied between 0.4 and 0.8 μM in the binding assay and between 8 and 25 nM in the catalytic assay. Substrate stock solutions were freshly prepared the day of the assay. Fatty acid stock solutions were in 50 mM potassium carbonate, SDS was easily dissolved in water, while TCE stock solutions were prepared in ethanol. If appropriate, stocks of candidate agents may be prepared in, for example, N,N-dimethylformamide just before the assay. […] The confidence interval for Kd given in the results section is the mean±the standard deviation of at least four measurements, as calculated using the software Kaleidagraph. Similarly kcat was calculated by fitting data points to the Michaelis-Menten equation. Each data point is the mean of at least four measurements.

[2] = substrate: CCCCC/C=C\C/C=C\C/C=C\C/C=C\CCCC(=O)O
Procedure: as §1

[3] = substrate: ClC(Cl)C(Cl)Cl
Procedure: as §1

[4] = substrate: CCCCCCCCCCCC(=O)O
Procedure: as §1

B1: cytochrome P450 BM3 (Priestia megaterium NBRC 15308 = ATCC 14581) (protein)
chain: MTIKEMPQPKTFGELKNLPLLNTDKPVQALMKIADELGEIFKFEAPGRVTRYLSSQRLIKEACDESRFDKNLSQALKFVRDFAGDGLFTSWTHEKNWKKAHNILLPSFSQQAMKGYHAMMVDIAVQLVQKWERLNADEHIEVPEDMTRLTLDTIGLCGFNYRFNSFYRDQPHPFITSMVRALDEAMNKLQRANPDDPAYDENKRQFQEDIKVMNDLVDKIIADRKASGEQSDDLLTHMLNGKDPETGEPLDDENIRYQIITFLIAGHETTSGLLSFALYFLVKNPHVLQKAAEEAARVLVDPVPSYKQVKQLKYVGMVLNEALRLWPTAPAFSLYAKEDTVLGGEYPLEKGDELMVLIPQLHRDKTIWGDDVEEFRPERFENPSAIPQHAFKPFGNGQRACIGQQFALHEATLVLGMMLKHFDFEDHTNYELDIKETLTLKPEGFVVKAKSKKIPLGGIPSPSTEQSAKKVRKKAENAHNTPLLVLYGSNMGTAEGTARDLADIAMSKGFAPQVATLDSHAGNLPREGAVLIVTASYNGHPPDNAKQFVDWLDQASADEVKGVRYSVFGCGDKNWATTYQKVPAFIDETLAAKGAENIADRGEADASDDFEGTYEEWREHMWSDVAAYFNLDIENSEDNKSTLSLQFVDSAADMPLAKMHGAFSTNVVASKELQQPGSARSTRHLEIELPKEASYQEGDHLGVIPRNYEGIVNRVTARFGLDASQQIRLEAEEEKLAHLPLAKTVSVEELLQYVELQDPVTRTQLRAMAAKTVCPPHKVELEALLEKQAYKEQVLAKRLTMLELLEKYPACEMKFSEFIALLPSIRPRYYSISSSPRVDEKQASITVSVVSGEAWSGYGEYKGIASNYLAELQEGDTITCFISTPQSEFTLPKDPETPLIMVGPGTGVAPFRGFVQARKQLKEQGQSLGEAHLYFGCRSPHEDYLYQEELENAQSEGIITLHTAFSRMPNQPKTYVQHVMEQDGKKLIELLDQGAHFYICGDGSQMAPAVEATLMKSYADVHQVSEADARLWLQQLEEKGRYAKDVWAG
notes: expressed in transfected cells; host or cells: E. coli BL21(DE3) transformed with pT7Bm3Z
**Q.** For B1, which Km [1] is on record?
**A.** Its Km is 0.51 ± 0.12 µM.

**Q.** What about the kcat [1] of the same protein?
**A.** Its kcat is 2605 ± 61 mole NADPH/min/mole P450.

**Q.** And the Km [2]?
**A.** The Km was 0.37 ± 0.07 µM.

**Q.** And the kcat [2]?
**A.** Its kcat is 3570 ± 88 mole NADPH/min/mole P450.

**Q.** And the Km [3]?
**A.** The Km was 7960 ± 2041 µM.

**Q.** What about the kcat [3] of the same protein?
**A.** The kcat was 5133.5 ± 641.3 mole NADPH/min/mole P450.

**Q.** What about the Km [4] of the same protein?
**A.** Its Km is 67.8 ± 14.5 µM.

**Q.** And the kcat [4]?
**A.** Its kcat is 1928 ± 114 mole NADPH/min/mole P450.
